The assay concerns the target GAL-RXR (yeast GAL4 DBD linked to the human RXRα LBD) (yeast; human) (UniProt P04386). In words: cell-based or functional assay.

Drawing on patent publication US6458926, this text covers fold response to LG69 for one substance.

Sequence of T3R LBD (SV40 TAg NLS fused upstream of human T3Rβ LBD) (P10828 other isoform, or with tags, fused parts or gaps): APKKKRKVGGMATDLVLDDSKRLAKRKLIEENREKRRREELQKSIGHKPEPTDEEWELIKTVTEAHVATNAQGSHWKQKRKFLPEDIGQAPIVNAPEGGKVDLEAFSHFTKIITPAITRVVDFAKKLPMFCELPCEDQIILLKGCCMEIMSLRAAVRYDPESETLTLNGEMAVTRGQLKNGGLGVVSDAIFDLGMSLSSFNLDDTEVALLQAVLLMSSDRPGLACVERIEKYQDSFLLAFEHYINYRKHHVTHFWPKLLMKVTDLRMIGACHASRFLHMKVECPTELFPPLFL

“T3R LBD (SV40 TAg NLS fused upstream of human T3Rβ LBD) (from UniProt P10828 173-456)” registered a fold response to LG69 of 57 fold.
